Read-outs that look alike come from different tables or passages of the source.
Assays:
Details in all cases: remark: other sources report otherwise
[1] = molecular target: T1, SARS-CoV-2 spike receptor binding domain, wild-type (S-RBD) (SARS-CoV-2), P0DTC2
[2] = molecular target: full-length SARS-CoV-2 spike (SARS-CoV-2), P0DTC2
[3] = molecular target: N501Y S-RBD (SARS-CoV-2), P0DTC2
[4] = molecular target: SARS-CoV-2 spike D215H (SARS-CoV-2), P0DTC2
[5] = molecular target: SARS-CoV-2 spike D614G (SARS-CoV-2), P0DTC2
[6] = molecular target: SARS-CoV-2 spike E484K+N501Y+D614G (SARS-CoV-2), P0DTC2
[7] = molecular target: T2, SARS-CoV-2 spike K417N+E484K+N501Y+D614G (SARS-CoV-2), P0DTC2
[8] = molecular target: SARS-CoV-2 spike K417N+N501Y+D614G (SARS-CoV-2), P0DTC2
[9] = molecular target: SARS-CoV-2 spike N439K+D614G (SARS-CoV-2), P0DTC2
[10] = molecular target: SARS-CoV-2 spike N501Y+D614G (SARS-CoV-2), P0DTC2
[11] = molecular target: SARS-CoV-2 spike S247R (SARS-CoV-2), P0DTC2
[12] = molecular target: N501Y S-RBD (SARS-CoV-2), P0DTC2; experiment: BLI (Octet), N501Y S-RBD amine coupled on AR2G sensor, 1:1 fit
[13] = molecular target: SARS-CoV-2 spike E484K+N501Y+D614G (SARS-CoV-2), P0DTC2; experiment: FACS MFI on transfected HEK293T cells, against D614G spike (mut 3)
[14] = molecular target: T2, SARS-CoV-2 spike …; experiment: as above
[15] = molecular target: T1, SARS-CoV-2 spike receptor binding …; experiment: BLI (Octet), S-RBD amine coupled on AR2G sensor, IgG4 in solution, 1:1 fit
[16] = molecular target: N501Y S-RBD (SARS-CoV-2), P0DTC2; experiment: BLI (Octet), N501Y S-RBD amine-coupled on AR2G sensor, 1:1 binding model
[17] = molecular target: T1, SARS-CoV-2 spike receptor binding …; experiment: BLI (Octet), S-RBD amine-coupled on AR2G sensor, 1:1 binding model [cont'd) h]
[18] = molecular target: N501Y S-RBD (SARS-CoV-2), P0DTC2; experiment: BLI (Octet), biotinylated N501Y S-RBD on SA sensor, 1:1 fit
[19] = molecular target: B.1.351 S-RBD (SARS-CoV-2), P0DTC2; experiment: BLI (Octet RED96), biotin B.1.351 S-RBD on SA sensor, 1:1 fit
[20] = molecular target: T1, SARS-CoV-2 spike receptor binding …; experiment: BLI (Octet), biotinylated S-RBD on SA sensor, IgG4 in solution, 1:1 fit
[21] = molecular target: T1, SARS-CoV-2 spike receptor binding …; experiment: BLI (Octet RED96), biotin S-RBD on SA sensor, 1:1 fit; dimer S-E6, WT S-RBD
[22] = molecular target: N501Y S-RBD (SARS-CoV-2), P0DTC2; experiment: BLI (Octet), biotinylated N501Y S-RBD on SA biosensor, 1:1 binding model
[23] = molecular target: T1, SARS-CoV-2 spike receptor binding …; experiment: BLI (Octet RED96), biotinylated WT S-RBD on SA biosensor, 1:1 binding model
[24] = molecular target: T1, SARS-CoV-2 spike receptor binding …; experiment: BLI (Octet), biotinylated S-RBD on SA biosensor, 1:1 binding model [cont'd) h]
[25] = molecular target: B.1.351 S-RBD (SARS-CoV-2), P0DTC2; experiment: BLI (Octet RED96), biotinylated B.1.351 S-RBD on SA biosensor, 1:1 binding model

Binder	IC50 [1]	MFI [2]	koff [3]	kon [3]	MFI [4]	MFI [5]	MFI [6]	MFI [7]	MFI [8]	MFI [9]	MFI [10]	MFI [11]	other results
S-D4 (antibody, V domains shown) VH: QVQLQESGGGVVQPGRSLRLSCEVSGFTFSDYGMHWVRQAPGKGLEWVAVIWSEGSTEYYADSVKGRFTISRDNSKDTLYLQMNSLRAEDTAVYYCARPGYPTSTDRSPAAAGARQYYYYGMDVWGQGTTVTVSS VL: NFMLTQPHSVSESPGKTVTISCTRSGGSGAANYVQWYQQRPGSSPTTLIYEDSRRPPGVPDRFSGSVDTSSNSASLTISGLQTEDEADYYCQSYDSSNHVVFGGGTKLTVLG	7.1 nM	43000	4.2e-05 s⁻¹	440000 M⁻¹ s⁻¹	411000	414000	138000	147000	155000	360000	281000	335000	Kd [12]: 0.097 nM; MFI as percent of mut 3 [13]: 33.2 % of mut 3; MFI as percent of mut 3 [14]: 35.6 % of mut 3; Kd [15]: 0.12 nM; koff [16]: 4.2e-05 s⁻¹; kon [16]: 440000 M⁻¹ s⁻¹; koff [17]: 4.6e-05 s⁻¹; kon [17]: 390000 M⁻¹ s⁻¹
S-E6 (antibody, V domains shown) VH: QVTLRESGPGLVKPSETLSLTCAVSGGSLSSVNYYWSWIRQHPGKGLEWIGYIYYSGSTNYNPSLKSRVTMSLDTSKNQFSLKLSSVTAADTAVYYCATPGAIMGALHIWGQGTLVTVSS VL: QAVLTQPSSASSTPGQRVIISCSGSSSNIGSNTVSWYQQVPGAAPKLLIYFDYRRPSGVPDRFSGTRSGTSASLGISGLQSEDEADYYCAAWDDSLSAWVFGRGTKLTVLG	12.2 nM	18200	0.00025 s⁻¹	1.2e+06 M⁻¹ s⁻¹	135000	157000	139000	141000	312000	133000	153000	109000	Kd [18]: 0.21 nM; Kd [19]: 1.58 nM; Kd [20]: 0.11 nM; Kd [21]: 0.0836 nM; koff [22]: 0.00025 s⁻¹; kon [22]: 1.2e+06 M⁻¹ s⁻¹; koff [23]: 3.37e-05 s⁻¹; kon [23]: 403000 M⁻¹ s⁻¹; koff [24]: 0.00013 s⁻¹; kon [24]: 1.2e+06 M⁻¹ s⁻¹; Kd [25]: 1.58 nM; koff [25]: 0.000915 s⁻¹; kon [25]: 581000 M⁻¹ s⁻¹

Reference: patent publication US20220213176A1
